Six molecules from US7091002B2, “Carboxypeptidases and nucleic acids encoding same” (Novozymes, Inc., priority 1996, dated 2006) can be followed below.

Where “and” joins values, the source holds several entries; their conditions need not be identical. Identical values can stand only once. Residues, ends and D or L forms follow the SMILES beside them. *: point of attachment. Cbz = O=C(OCc1ccccc1)*

Common to all, as to assay type: biochemical
Series [1] concerns the target T1, Aspergillus oryzae ATCC 20386 carboxypeptidase I (Aspergillus oryzae, UniProt Q2TZ11).
T1 sequence (Q2TZ11 19-555): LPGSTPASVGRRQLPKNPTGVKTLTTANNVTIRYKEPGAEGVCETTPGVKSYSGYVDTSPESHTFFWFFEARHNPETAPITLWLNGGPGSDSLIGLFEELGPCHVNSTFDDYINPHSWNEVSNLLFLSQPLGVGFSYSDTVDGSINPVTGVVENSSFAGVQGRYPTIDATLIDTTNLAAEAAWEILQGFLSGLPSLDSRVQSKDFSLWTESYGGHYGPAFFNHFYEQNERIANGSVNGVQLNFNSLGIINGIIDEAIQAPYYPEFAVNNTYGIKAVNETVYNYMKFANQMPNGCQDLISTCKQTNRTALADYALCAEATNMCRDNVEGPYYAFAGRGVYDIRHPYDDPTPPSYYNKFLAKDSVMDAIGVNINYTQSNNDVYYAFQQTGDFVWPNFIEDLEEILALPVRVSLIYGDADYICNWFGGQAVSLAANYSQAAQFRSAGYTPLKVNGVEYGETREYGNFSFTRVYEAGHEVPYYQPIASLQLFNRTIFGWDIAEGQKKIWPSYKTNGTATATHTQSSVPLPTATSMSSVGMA
The experiment in a line: Inhibition of the carboxypeptidase with 1,10-phenanthroline and phenylmethylsulfonyl fluoride. Particulars: furylacryloyl-Ala-Lys as substrate, pH 7.0, 20 mM phosphate buffer, hydrolysis monitored at 340 nm. The protocol:
Inhibition of the carboxypeptidase with 1,10-phenanthroline and phenylmethylsulfonyl fluoride was evaluated using furylacryloyl-Ala-Lys as substrate at pH 7.0 in 20 mM phosphate buffer where hydrolysis was monitored at 340 nm.

The subject of series [2] is Aspergillus oryzae ATCC 20386 carboxypeptidase I. Description: Substrate specificity of the carboxypeptidase (hydrolysis of N-CBZ-Ala-X / N-CBZ-Glu-X). Particulars: compared with literature values. As to the method:
(§1) The substrate specificity of the carboxypeptidase was determined by measuring the hydrolysis of a substrate listed in Table 1 at pH 4.0 in 50 mM acetate buffer. o-Phthaldialdehyde together with dithiothreitol were used to monitor the liberation of free IIe, Glu, Lys, Arg, Asp, Asn, Gly, Phe, amd Tyr under enzymatic hydrolysis according to the procedure of Roth, M., 1971, Analytical Chemistry 43: 880. The kcat value for the hydrolysis of N-CBZ-Ala-X or N-CBZ-Glu-X was determined based on the assumption that molecular weight of the carboxypeptidase was 68 kD and that the enzyme preparation was homogeneous.

Series [3] concerns the target T1, Aspergillus oryzae ATCC 20386 carboxypeptidase I. The series is described as above. To be noted: 2 mM substrate, 2 hour incubation, 4.9×10^−7 M carboxypeptidase. The protocol:
as §1

The next series deals with Casein. Description: Protein hydrolysis, degree of hydrolysis (DH), casein. To be noted: Casein 2% (w/v), pH 7.0, 18 hours at 50° C.; FLAVOURZYME 3 LAPU, carboxypeptidase 11.5 CPDU. As to the method:
(§2) Commercial grade soy meal, wheat gluten, casein and gelatin were used as protein substrates. The soy meal was prepared from defatted toasted soy grits 20/80/20 (Cargill BV, NL); vital wheat gluten was obtained from Crespel and Dieters, Denmark; casein was obtained as Na-Caseinate Miprodan (MD Foods, Denmark); and gelatin was obtained as Bonegelatin (DGF Stores, Denmark).
(§3) The substrates were prepared as a 2% (w/v) aqueous solution, in which the protein concentration was determined by the method of Kjeldahl. Two hundred mg of each substrate, obtained in the form of a dry composition, was dissolved in 9 ml of tap water and the pH was adjusted to 7.0. […]
(§4) The hydrolysates were cooled and the degree of hydrolysis (DH) was assayed in microtiter plates using OPA (ortho-phtaldialdehyde, Sigma Chemical Co., St. Louis, Mo.) as the detecting reagent. The DH, defined as described in by Adler-Nissen (1986, Enzymic Hydrolysis of Food Proteins, Elsevier Applied Science Publishers), was determined by reaction of the supernatant with OPA (ortho-phtaldialdehyde, Sigma Chemical Co., St. Louis, Mo.). […]
(§5) A volume of 25 μl of suitably diluted supernatant was mixed with 200 μl of OPA reagent in a microtiter plate well and allowed to react for exactly 2 minutes at 25° C. […] The degree of hydrolysis was calculated on basis of the total amount of protein in the hydrolysis mixture (not on basis of soluble protein).

The test system of the next series is Soy Meal. The experiment in a line: Protein hydrolysis, degree of hydrolysis (DH), soy meal. Particulars: Soy Meal 2% (w/v), pH 7.0, 18 hours at 50° C.; FLAVOURZYME 3 LAPU, carboxypeptidase 11.5 CPDU. The protocol:
as §2, §3, §4, §5

Series [4] can be described thus: Thermostability of the carboxypeptidase (residual activity). To be noted: 10 minute incubation, 50 mM acetate buffer.
The next series deals with Wheat Gluten. The experiment in a line: Protein hydrolysis, degree of hydrolysis (DH), wheat gluten. Particulars: Wheat Gluten 2% (w/v), pH 7.0, 18 hours at 50° C.; FLAVOURZYME 3 LAPU, carboxypeptidase 11.5 CPDU. The protocol: as §2, §3, §4, §5
Series [5] in a line: Specific activity of the carboxypeptidase (CPDU assay). To be noted: 0.5 mM N-CBZ-Ala-Glu, pH 4.5, 25° C. As to the method: The activity of the carboxypeptidase was determined by measuring the rate of specific hydrolysis of N-CBZ-Ala-Glu. One carboxypeptidase unit (CPDU) is the amount of carboxypeptidase which liberates 1 micromole of glutamate per minute from a 0.5 mM N-CBZ-Ala-Glu solution at pH 4.5 and 25° C. A reagent containing o-phthaldialdehyde in combination with dithiothreitol was used to monitor the liberation of free glutamate under enzymatic hydrolysis according to the procedure of Roth, 1971, supra. The o-phthaldialdehyde reagent was a solution of o-phthaldialdehyde (6 mM) and dithiothreitol (6.5 mM) in 0.1 M sodium tetraborate. Briefly, 0.05 ml of the enzyme solution in 20 mM acetate buffer, pH 4.5 was incubated with 1 ml of substrate. At regular time intervals, a 0.3 ml aliquot was withdrawn, mixed with 0.9 ml of the o-phthaldialdehyde reagent, and the absorption at A340, using a path length of 1 cm, of the resultant product was measured. Where the dependence of A340 on the incubation time was linear, the specific activity of the enzyme was calculated using the equation: specific activity=slope (optical density per min)×11.35. By this procedure, the specific activity of the purified carboxypeptidase was determined to be 11 CPDU per mg protein which is equivalent to 11 micromoles glutamate per minute per mg protein.

Series [6] deals with soy meal, wheat gluten, casein and gelatin. The experiment in a line: Protein hydrolysis, DH, summary for all substrates. The protocol: as §2, §3, §4, §5
In the next series the test system is Gelatin. Description: Protein hydrolysis, degree of hydrolysis (DH), gelatin. To be noted: Gelatin 2% (w/v), pH 7.0, 18 hours at 50° C.; FLAVOURZYME 3 LAPU, carboxypeptidase 11.5 CPDU. The protocol: as §2, §3, §4, §5
Substrate in series [7]: C[C@H](NC(=O)/C=C/c1ccco1)C(=O)N[C@@H](CCCCN)C(=O)O
Description: Km of the carboxypeptidase toward furylacryloyl-Ala-Lys. Particulars: other: pH 4.0, 25° C.

Consider `c1cnc2c(c1)ccc1cccnc12` [1,10-phenanthroline], for which, in series [1], the “Inhibition of carboxypeptidase activity” value is given as “does not inhibit”.
As to `C[C@H](NC(=O)OCc1ccccc1)C(=O)N[C@@H](Cc1ccccc1)C(=O)O` [N-CBZ-Ala-Phe], the “kcat relative to acid carboxypeptidases O-1 and O-2 from Aspergillus oryzae” value in series [2] is listed as “at least 8.5 fold”.
As to `O=S(=O)(F)Cc1ccccc1` [phenylmethylsulfonyl fluoride], in series [1], the “Inhibition of carboxypeptidase activity” value is “inhibits carboxypeptidase activity completely”.
Consider `C[C@H](NC(=O)OCc1ccccc1)C(=O)N1CCC[C@H]1C(=O)O` [N-CBZ-Ala-Pro] (Cbz-Ala-Pro-OH), for which the “fraction of substrate solution hydrolyzed” value in [3] is listed as 16%.

B1: carboxypeptidase: carboxypeptidase purified from FLAVOURZYME broth, approximately 68 kDa serine carboxypeptidase, amino acid sequence SEQ ID NO: 2 (protein, listed as Aspergillus oryzae)
chain: MRGYEFLSVLPLVAASWALPGSTPASVGRRQLPKNPTGVKTLTTANNVTIRYKEPGAEGVCETTPGVKSYSGYVDTSPESHTFFWFFEARHNPETAPITLWLNGGPGSDSLIGLFEELGPCHVNSTFDDYINPHSWNEVSNLLFLSQPLGVGFSYSDTVDGSINPVTGVVENSSFAGVQGRYPTIDATLIDTTNLAAEAAWEILQGFLSGLPSLDSRVQSKDFSLWTESYGGHYGPAFFNHFYEQNERIANGSVNGVQLNFNSLGIINGIIDEAIQAPYYPEFAVNNTYGIKAVNETVYNYMKFANQMPNGCQDLISTCKQTNRTALADYALCAEATNMCRDNVEGPYYAFAGRGVYDIRHPYDDPTPPSYYNKFLAKDSVMDAIGVNINYTQSNNDVYYAFQQTGDFVWPNFIEDLEEILALPVRVSLIYGDADYICNWFGGQAVSLAANYSQAAQFRSAGYTPLKVNGVEYGETREYGNFSFTRVYEAGHEVPYYQPIASLQLFNRTIFGWDIAEGQKKIWPSYKTNGTATATHTQSSVPLPTATSMSSVGMA
As to B1, the DH in the series with Casein, in the series on Soy Meal, in the series with Wheat Gluten and with Gelatin was 0 throughout. Besides, the residual activity in series [4] (pH 4.0, 55° C.) worked out at 74%; in series [4] (pH 4.0, 60° C.) it was 65%. Also, in [5], the specific activity was 11 CPDU per mg protein and 11 micromoles glutamate per minute per mg protein. For the same molecule, the “effect on DH, enzyme alone” value in series [6] is recorded as “no effect”. The “effect on the DH obtained by FLAVOURZYME when added with FLAVOURZYME” value in series [6] is given as “enhanced”.

B2: Aspergillus oryzae ATCC 20386 carboxypeptidase I (Aspergillus oryzae RIB40) (protein)
chain: T1 sequence (Q2TZ11 19-555)
For B2, the Km in series [7] is 0.4 mM.

As a reminder, the residual activity is the share of the control activity or signal that is left under treatment. Low readings indicate little activity left, high ones much activity left. In general, Km refers to the concentration of substrate that gives half-maximal velocity.
